Measurements: paper PMC5759761 (Nature, 2017)

Target: the molecule itself
Test: cryo-EM structure

B1: E. coli MsbA (natural protein)
chain: MHNDKDLSTWQTFRRLWPTIAPFKAGLIVAGVALILNAASDTFMLSLLKPLLDDGFGKTDRSVLVWMPLVVIGLMILRGITSYVSSYCISWVSGKVVMTMRRRLFGHMMGMPVSFFDKQSTGTLLSRITYDSEQVASSSSGALITVVREGASIIGLFIMMFYYSWQLSIILIVLAPIVSIAIRVVSKRFRNISKNMQNTMGQVTTSAEQMLKGHKEVLIFGGQEVETKRFDKVSNRMRLQGMKMVSASSISDPIIQLIASLALAFVLYAASFPSVMDSLTAGTITVVFSSMIALMRPLKSLTNVNAQFQRGMAACQTLFTILDSEQEKDEGKRVIERATGDVEFRNVTFTYPGRDVPALRNINLKIPAGKTVALVGRSGSGKSTIASLITRFYDIDEGEILMDGHDLREYTLASLRNQVALVSQNVHLFNDTVANNIAYARTEQYSREQIEEAARMAYAMDFINKMDNGLDTVIGENGVLLSGGQRQRIAIARALLRDSPILILDEATSALDTESERAIQAALDELQKNRTSLVIAHRLSTIEKADEIVVVEDGVIVERGTHNDLLEHRGVYAQLHKMQFGQ
stoichiometry N: 2
